Assay results from US20150344570A1 (published 2015).
Blank lines part the entries; values can stand above or below the binder they belong to.

Legend:
FcγRIIa H = target: T1, FcγRIIa H (human, UniProt P12318 34-217); experiment: SPR (Biacore), antibody captured, FcγR as analyte; binding relative to GpH7-A5/GpH7-B3/GpL16-k0 = 100
T1 construct: extracellular domain; also called FcγRIIa type H; 2aH; not shown: His tag at the C terminus
T1 sequence (looked up): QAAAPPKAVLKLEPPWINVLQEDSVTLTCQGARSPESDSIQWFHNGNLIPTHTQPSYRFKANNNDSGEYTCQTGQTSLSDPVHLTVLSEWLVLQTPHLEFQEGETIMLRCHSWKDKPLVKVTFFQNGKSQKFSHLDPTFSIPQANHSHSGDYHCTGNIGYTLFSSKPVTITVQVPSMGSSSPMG
Experimental: (§1) The heterodimerized antibodies He Abs in which one of the H chains was introduced with an alteration were assayed for their binding activities to each activating FcγR and inhibitory FcγR according to the method described in Example 4. […] The activating FcγRs in FIGS. 26, 27, 28, and 29 are FcγRIa, FcγRIIa (R), FcγRIIa (H), and FcγRIIIa, respectively.
(§2) Analysis of interaction between objective antibody and the FcγR was carried out using Biacore T100 (GE Healthcare). HBS-EP+ (GE Healthcare) was used as the running buffer, and the measurement temperature was set to 25° C. Chips produced by immobilizing the antigen peptide by the amine coupling method to a Series S Sencor Chip CM5 (GE Healthcare), or alternatively, chips produced by allowing preliminarily biotinylated antigen peptides to interact with and immobilize onto a Series S Sensor Chip SA (certified) (GE Healthcare) were used. Antibodies of interest were captured onto an antigen peptide-immobilized chip, and allowed to interact to each FcγR diluted with running buffer. To regenerate and repeatedly use the chip, the antibodies captured on the chip were washed off by reacting 10 mM glycine-HCl, pH 1.5.

FcγRIIb = target: T2, FcγRIIb (human, UniProt P31994 43-217); experiment: as above
T2 construct: extracellular domain; also called 2b; not shown: His tag at the C terminus
T2 sequence (looked up): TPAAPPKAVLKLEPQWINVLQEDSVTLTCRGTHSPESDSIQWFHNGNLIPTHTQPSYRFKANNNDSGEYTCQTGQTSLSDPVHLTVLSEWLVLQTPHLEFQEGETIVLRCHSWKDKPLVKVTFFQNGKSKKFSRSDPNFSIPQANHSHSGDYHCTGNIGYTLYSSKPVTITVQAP
Experimental: as §1, §2

B1: GpH7-A5/GpH7-B3 variant A330_11K/GpL16-k0 (antibody, human IgG1, kappa)
heavy 1: not shown
heavy 2: not shown
light: DIVMTQSPLSLPVTPGEPASISCQASESLVHSNRNTYLHWYLQKPGQSPQLLIYKVSNRFSGVPDRFSGSGSGTDFTLKISRVEAEDVGVYYCSQNTHVPPTFGQGTKVEIERTVAAPSVFIFPPSDEQLKSGTASVVCLLNNFYPREAKVQWKVDNALQSGNSQESVTEQDSKDSTYSLSSTLTLSKADYEKHKVYACEVTHQGLSSPVTKSFNRGEC
notes: Heterodimerized IgG1; mutation in the GpH7-B3 chain only; also called He Ab
He/Con_2aH (FcγRIIa H): 109 % of control | He/Con_2b (FcγRIIb): 95 % of control

B4: GpH7-A5/GpH7-B3 variant A330_19Q/GpL16-k0 (antibody, human IgG1, kappa)
heavy 1: not shown
heavy 2: not shown
light: DIVMTQSPLSLPVTPGEPASISCQASESLVHSNRNTYLHWYLQKPGQSPQLLIYKVSNRFSGVPDRFSGSGSGTDFTLKISRVEAEDVGVYYCSQNTHVPPTFGQGTKVEIERTVAAPSVFIFPPSDEQLKSGTASVVCLLNNFYPREAKVQWKVDNALQSGNSQESVTEQDSKDSTYSLSSTLTLSKADYEKHKVYACEVTHQGLSSPVTKSFNRGEC
notes: as for B1
He/Con_2aH (FcγRIIa H): 102 % of control | He/Con_2b (FcγRIIb): 90.8 % of control

B5: GpH7-A5/GpH7-B3 variant D270_10E/GpL16-k0 (antibody, human IgG1, kappa)
heavy 1: not shown
heavy 2: not shown
light: DIVMTQSPLSLPVTPGEPASISCQASESLVHSNRNTYLHWYLQKPGQSPQLLIYKVSNRFSGVPDRFSGSGSGTDFTLKISRVEAEDVGVYYCSQNTHVPPTFGQGTKVEIERTVAAPSVFIFPPSDEQLKSGTASVVCLLNNFYPREAKVQWKVDNALQSGNSQESVTEQDSKDSTYSLSSTLTLSKADYEKHKVYACEVTHQGLSSPVTKSFNRGEC
notes: as for B1
He/Con_2aH (FcγRIIa H): 102 % of control | He/Con_2b (FcγRIIb): 76.5 % of control

B8: GpH7-A5/GpH7-B3 variant E333_09D/GpL16-k0 (antibody, human IgG1, kappa)
heavy 1: not shown
heavy 2: not shown
light: DIVMTQSPLSLPVTPGEPASISCQASESLVHSNRNTYLHWYLQKPGQSPQLLIYKVSNRFSGVPDRFSGSGSGTDFTLKISRVEAEDVGVYYCSQNTHVPPTFGQGTKVEIERTVAAPSVFIFPPSDEQLKSGTASVVCLLNNFYPREAKVQWKVDNALQSGNSQESVTEQDSKDSTYSLSSTLTLSKADYEKHKVYACEVTHQGLSSPVTKSFNRGEC
notes: as for B1
He/Con_2aH (FcγRIIa H): 103 % of control | He/Con_2b (FcγRIIb): 94.3 % of control

Now from value to binder:

He/Con_2aH (FcγRIIa H): 108 % of control | He/Con_2b (FcγRIIb): 84.8 % of control
B2: GpH7-A5/GpH7-B3 variant A330_12R/GpL16-k0 (antibody, human IgG1, kappa)
heavy 1: not shown
heavy 2: not shown
light: DIVMTQSPLSLPVTPGEPASISCQASESLVHSNRNTYLHWYLQKPGQSPQLLIYKVSNRFSGVPDRFSGSGSGTDFTLKISRVEAEDVGVYYCSQNTHVPPTFGQGTKVEIERTVAAPSVFIFPPSDEQLKSGTASVVCLLNNFYPREAKVQWKVDNALQSGNSQESVTEQDSKDSTYSLSSTLTLSKADYEKHKVYACEVTHQGLSSPVTKSFNRGEC
notes: as for B1

He/Con_2aH (FcγRIIa H): 101 % of control | He/Con_2b (FcγRIIb): 87.6 % of control
B3: GpH7-A5/GpH7-B3 variant A330_16H/GpL16-k0 (antibody, human IgG1, kappa)
heavy 1: not shown
heavy 2: not shown
light: DIVMTQSPLSLPVTPGEPASISCQASESLVHSNRNTYLHWYLQKPGQSPQLLIYKVSNRFSGVPDRFSGSGSGTDFTLKISRVEAEDVGVYYCSQNTHVPPTFGQGTKVEIERTVAAPSVFIFPPSDEQLKSGTASVVCLLNNFYPREAKVQWKVDNALQSGNSQESVTEQDSKDSTYSLSSTLTLSKADYEKHKVYACEVTHQGLSSPVTKSFNRGEC
notes: as for B1

He/Con_2aH (FcγRIIa H): 102 % of control | He/Con_2b (FcγRIIb): 94.6 % of control
B6: GpH7-A5/GpH7-B3 variant E333_04F/GpL16-k0 (antibody, human IgG1, kappa)
heavy 1: not shown
heavy 2: not shown
light: DIVMTQSPLSLPVTPGEPASISCQASESLVHSNRNTYLHWYLQKPGQSPQLLIYKVSNRFSGVPDRFSGSGSGTDFTLKISRVEAEDVGVYYCSQNTHVPPTFGQGTKVEIERTVAAPSVFIFPPSDEQLKSGTASVVCLLNNFYPREAKVQWKVDNALQSGNSQESVTEQDSKDSTYSLSSTLTLSKADYEKHKVYACEVTHQGLSSPVTKSFNRGEC
notes: as for B1

He/Con_2aH (FcγRIIa H): 102 % of control | He/Con_2b (FcγRIIb): 95 % of control
B7: GpH7-A5/GpH7-B3 variant E333_08L/GpL16-k0 (antibody, human IgG1, kappa)
heavy 1: not shown
heavy 2: not shown
light: DIVMTQSPLSLPVTPGEPASISCQASESLVHSNRNTYLHWYLQKPGQSPQLLIYKVSNRFSGVPDRFSGSGSGTDFTLKISRVEAEDVGVYYCSQNTHVPPTFGQGTKVEIERTVAAPSVFIFPPSDEQLKSGTASVVCLLNNFYPREAKVQWKVDNALQSGNSQESVTEQDSKDSTYSLSSTLTLSKADYEKHKVYACEVTHQGLSSPVTKSFNRGEC
notes: as for B1
